Data set [1] concerns HCC1806 cells. The data set is described as follows: Immunogenic cell death markers in HCC1806 cells. The format is cell-based, human. The settings on record: HCC1806, 48 hours; for secreted HMGB1: ELISA. How it is done: (§1) ICD can be measured by markers such as the expression of calreticulin on the surface of cancer cells and secretion of HMGB1. In this exemplary study, A375 cells (ATCC) derived from a human malignant melanoma were cultured in RPMI-1640™ medium with 10% (v/v) fetal bovine serum for 48 hours in the presence of the indicated amount of drug. HCC1806 cells (ATCC) derived from human breast carcinoma were cultured in DME medium for 48 hours in the presence of the indicated amount of drug. CT26 cells and CT26 huCD166 cells (CT26 cells expressing human CD166 polypeptide as discussed herein) were cultured in RPMI-1640™ medium with 10% (v/v) fetal bovine serum for 72 hours in the presence of the indicated amount of drug. Following incubation, calreticulin expression was detected by flow cytometry using a FITC conjugated calreticulin antibody (Novus Bio, clone 1G6A7; #NBP1-47518F). HMGB1 protein was detected by ELISA (Tecan HMGB1 ELISA kit, #NC9959947).
On the technique in general: In an ELISA, binding on a coated surface is turned into a signal by an enzyme label.

Data set [2] has as its system dendritic cells (MoDCs). Nature of the data set: Dendritic cell maturation markers by flow cytometry. Also on record: dose or concentration left out as unconfirmed. To be noted: 48 hours, compared to untreated cells. The data set is classed as cell-based, human. How it is done: In this study, dendritic cells were cultured with […] anti-CD166 antibody conjugated to DM4 (CD166-DM4 ADC) or a dendritic cell maturation cocktail (Stem Cell Technology DC maturation kit (#10989)) for 48 hours. […] The MoDCs were then assessed for maturation by flow cytometric measurement of dendritic cell maturation markers CD80 (2D10 antibody, BioLegend), CD83 (HB15e antibody, BioLegend), HLA-DR (L243 antibody, BioLegend), and CD86 (IT2.2 antibody, BioLegend).
A general note: Flow cytometry measures light scatter and fluorescence of single cells or particles in a stream.

Data set [3] concerns CT26 cells. Nature of the data set: Calreticulin surface expression on CT26 cells. The settings on record: CT26, 72 hours. The data set is classed as cell-based, mouse. How it is done:
as §1

For data set [4], the system named is A375 cells. Nature of the data set: Immunogenic cell death markers in A375 cells. The format is cell-based, human. To be noted: A375, 48 hours; for secreted HMGB1: ELISA. How it is done: as §1
Data set [5] has as its system CT26 huCD166 cells. The data set is described as follows: Calreticulin surface expression on CT26 huCD166 cells. The data set is classed as cell-based, mouse. The settings on record: CT26 huCD166, 72 hours. How it is done: as §1
Data set [6] has as its system allogenic CD4+ T cells co-cultured with MoDCs. The format is cell-based, human.
Data set [7] deals with activated human T cells. Nature of the data set: Cytotoxicity towards activated T cells (CellTiter-Glo). (ATP-based viability assays read luminescence as a measure of living cells.)
For data set [8], the system named is human dendritic cells (MoDC). The data set is described as follows: Cytotoxicity towards fully activated MoDC (CytoTox-Glo). To be noted: 48 hours.

These results are taken from US20220233705A1, “COMBINED THERAPIES OF ACTIVATABLE IMMUNE CHECKPOINT INHIBITORS AND CONJUGATED ACTIVATABLE ANTIBODIES” (CYTOMX THERAPEUTICS, INC., priority 2019, published 2022).

As for `COc1cc2cc(c1Cl)N(C)C(=O)C[C@H](OC(=O)[C@H](C)N(C)C(=O)CCC(C)(C)S)[C@]1(C)O[C@H]1[C@H](C)[C@@H]1C[C@@](O)(NC(=O)O1)[C@H](OC)/C=C/C=C(\C)C2` [free DM4, DM4, reference compound], in data set [1], the “expression of calreticulin (CRT)” value was “increased expression” and the “secreted HMGB1” value was “increased amounts”. Also, in data set [2], the “expression of CD83” value is reported as “slightly increased” and the “expression of CD86” value is “slightly increased”. Also, in data set [3], the “surface expression of calreticulin (CRT)” value is given as “increased surface expression”. In addition, in data set [4], the “expression of calreticulin (CRT)” value is recorded as “increased expression” and the “secreted HMGB1” value is given as “increased amounts”. In addition, in data set [5], the “surface expression of calreticulin (CRT)” value is listed as “increased surface expression”.

B1: anti-CD166 ADC (conjugate)
VH: QITLKESGPTLVKPTQTLTLTCTFSGFSLSTYGMGVGWIRQPPGKALEWLANIWWSEDKHYSPSLKSRLTITKDTSKNQVVLTITNVDPVDTATYYCVQIDYGNDYAFTYWGQGTLVTVSS
VL: DIVMTQSPLSLPVTPGEPASISCRSSKSLLHSNGITYLYWYLQKPGQSPQLLIYQMSNLASGVPDRFSGSGSGTDFTLKISRVEAEDVGVYYCAQNLELPYTFGQGTKLEIK
In the case of B1, the “expression of calreticulin (CRT)” value in data set [1] and in data set [4] was “increased expression” each time. The “secreted HMGB1” value in data set [1] and in data set [4] was “increased amounts” in each case. Besides, the “production of IL-2 by allogeneic T cells” value in data set [6] is “slightly increase”. Moreover, in data set [2], the “expression of CD83” value is reported as “slightly increased”. Further, the “expression of CD86” value in data set [2] is recorded as “slightly increased”. Also, the “cytotoxic activity towards activated T cells” value in data set [7] (72 hours treatment) is on record as “minimal cytotoxic activity”. Also, the “doses at which cytotoxicity was observed” value in data set [7] (activated T cells, 72 hours) is given as “above 10 nM”; in data set [8] (fully activated MoDC), “above 10 nM”. For the same molecule, the “surface expression of calreticulin (CRT)” value in data set [3] and in data set [5] was “increased surface expression” each time. In addition, in data set [8], the “cytotoxic activity towards MoDCs” value is reported as “minimal cytotoxic activity”.
